{"source": "patent US20230374534", "proteins": {"B1": {"name": "Trx-h2, endogenous protein in Arabidopsis plants (protein)", "chain": "GGALSTVFGSGEDATAAGTESEPSRVLKFSSSARWQLHFNEIKESNKLLVVDFSASWCGPCRMIEPAIHAMADKFNDVDFVKLDVDELPDVAKEFNVTAMPTFVLVKRGKEIERIIGAKKDELEKKVSKLRA"}, "B2": {"name": "Thioredoxin h2 (Trx-h2), purified recombinant protein (protein)", "chain": "MGGALSTVFGSGEDATAAGTESEPSRVLKFSSSARWQLHFNEIKESNKLLVVDFSASWCGPCRMIEPAIHAMADKFNDVDFVKLDVDELPDVAKEFNVTAMPTFVLVKRGKEIERIIGAKKDELEKKVSKLRA"}, "B3": {"name": "Trx-h2(C/S), redox-insensitive point mutant of Trx-h2, recombinant (protein)", "chain": "B2 chain with C59S, C62S"}}, "key": {"[1]": {"target": "CBF1-Myc (from CBF1-Myc^OE Arabidopsis plants)", "sequence (chain, as listed by the source)": "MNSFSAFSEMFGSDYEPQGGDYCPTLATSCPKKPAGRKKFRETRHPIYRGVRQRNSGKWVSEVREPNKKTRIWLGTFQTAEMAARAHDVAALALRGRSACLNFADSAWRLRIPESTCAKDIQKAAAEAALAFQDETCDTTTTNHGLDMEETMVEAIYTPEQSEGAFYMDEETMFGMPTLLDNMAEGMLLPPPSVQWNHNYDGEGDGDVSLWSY"}, "[2]": {"target": "His-CBF1 (histidine-tagged C-repeat-binding transcription factor 1), recombinant", "sequence (chain, as listed by the source)": "as above"}}, "note": "Residue numbers refer to the chain shown, from its start."}
{"protein": "B1", "values": [{"measurement": "cold-induced structural switching of CBF1-Myc oligomers in planta (non-reducing gel, CBF1-Myc^OE/Col-0 against CBF1-Myc^OE/trx-h2)", "setting": "[1]", "result": "gradually dissociated into small oligomers and monomers by cold (lanes 2-4). By contrast, no structural change was detected in CBF1 extracted from CBF1-Myc^OE/trx-h2 plants"}]}
{"protein": "B2", "values": [{"measurement": "EMSA: mobility shift of the biotin-labeled COR15a promoter probe with His-CBF1", "setting": "[2]", "result": "Treatment with DTT or Trx-h2 ... induced a distinct mobility shift in the probe interacting with His-CBF1"}, {"measurement": "dissociation of CBF1 oligomers into monomers (Trx system with NADPH, Trx reductase and 5 µM Trx-h2; non-reducing SDS-PAGE, western blot)", "setting": "[2]", "result": "reduced and dissociated CBF1 oligomers into monomers"}]}
{"protein": "B3", "values": [{"measurement": "EMSA: mobility shift of the biotin-labeled COR15a promoter probe with His-CBF1", "setting": "[2]", "result": "but not H2O2 or Trx-h2(C/S), induced a distinct mobility shift"}]}
